Assay results taken from PMC12747129 (Science (New York, N.Y.), 2023).

Target: the molecule itself
Experiment: cryo-EM structure

B1: E. coli MraY (EcMraY), wild type (enzyme)
chain: MLVWLAEHLVKYYSGFNVFSYLTFRAIVSLLTALFISLWMGPRMIAHLQKLSFGQVVRNDGPESHFSKRGTPTMGGIMILTAIVISVLLWAYPSNPYVWCVLVVLVGYGVIGFVDDYRKVVRKDTKGLIARWKYFWMSVIALGVAFALYLAGKDTPATQLVVPFFKDVMPQLGLFYILLAYFVIVGTGNAVNLTDGLDGLAIMPTVFVAGGFALVAWATGNMNFASYLHIPYLRHAGELVIVCTAIVGAGLGFLWFNTYPAQVFMGDVGSLALGGALGIIAVLLRQEFLLVIMGGVFVVETLSVILQVGSFKLRGQRIFRMAPIHHHYELKGWPEPRVIVRFWIISLMLVLIGLATLKVR
stoichiometry N: 2
